Assay results taken from PMC6345439, “INDETERMINATE-DOMAIN 4 (IDD4) coordinates immune responses with plant-growth in Arabidopsis thaliana”.

T1: MBP-IDD4-DD (phospho-mimic, truncated) (Arabidopsis thaliana, UniProt Q8GYC1 20-219, S73D;T130D)
T1 sequence: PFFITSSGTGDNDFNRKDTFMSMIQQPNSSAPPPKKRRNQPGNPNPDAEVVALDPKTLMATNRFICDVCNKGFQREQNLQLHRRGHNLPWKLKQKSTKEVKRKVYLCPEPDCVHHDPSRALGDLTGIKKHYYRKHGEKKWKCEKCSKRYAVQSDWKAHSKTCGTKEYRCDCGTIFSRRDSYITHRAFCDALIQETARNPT

B1: SAGT1 promoter ID1 probe (395s/395as) (dsDNA)
DNA 1: ACATGGTAGACAAAATAATGAAGCCAAAATTAATA
DNA 2: TATTAATTTTGGCTTCATTATTTTGTCTACCATGT
B2: SAGT1 promoter ID1 competitor, unlabeled (spe) (dsDNA)
DNA 1: ACATGGTAGACAAAATAATGAAGCCAAAATTAATA
DNA 2: TATTAATTTTGGCTTCATTATTTTGTCTACCATGT

Experiments:
[1] = molecular target: T1, MBP-IDD4-DD (phospho-mimic, truncated); test: EMSA; LightShift Chemiluminescent EMSA kit instructions; 20 fmol biotinylated DNA, 1 ug protein; buffer, salt, pH and temperature not stated; settings: protein: recombinant; tags: MBP; label: 3' biotin; blunt
[2] = molecular target: T1, MBP-IDD4-DD (phospho-mimic, truncated); test: competition; unlabeled competitor up to 0.5 uM (100x excess) against N1; LightShift Chemiluminescent EMSA kit instructions; 20 fmol biotinylated DNA, 1 ug protein; buffer, salt, pH and temperature not stated; settings: protein: recombinant; tags: MBP; blunt

| Binder | binding result [1] | binding result [2] |
| --- | --- | --- |
| B1 | binds | – |
| B2 | – | binds |
